# Tests used:
# [1] = target: AcrIIC4Hpa
# [2] = target: AcrIIC5Smu
# [3] = target: AcrIIC2Nme
# [4] = target: AcrIIC1Nme
# [5] = target: AcrE2
# [6] = target: AcrIIC3Nme
Protein,in vitro DNA cleavage by Cas9:sgRNA in the presence of Acr (10:1 Acr:Cas9 molar ratio) [1],in vitro DNA cleavage by Cas9:sgRNA in the presence of Acr (10:1 Acr:Cas9 molar ratio) [2],in vitro DNA cleavage by Cas9:sgRNA in the presence of Acr (10:1 Acr:Cas9 molar ratio) [3],in vitro DNA cleavage by Cas9:sgRNA in the presence of Acr (10:1 Acr:Cas9 molar ratio) [4],in vitro DNA cleavage by Cas9:sgRNA in the presence of Acr (10:1 Acr:Cas9 molar ratio) [5],in vitro DNA cleavage by Cas9:sgRNA in the presence of Acr (10:1 Acr:Cas9 molar ratio) [6]
Nme1Cas9 (Cas9 of Neisseria meningitidis strain 8013) (protein) MAAFKPNSINYILGLDIGIASVGWAMVEIDEEENPIRLIDLGVRVFERAEVPKTGDSLAMARRLARSVRRLTRRRAHRLLRTRRLLKREGVLQAANFDENGLIKSLPNTPWQLRAAALDRKLTPLEWSAVLLHLIKHRGYLSQRKNEGETADKELGALLKGVAGNAHALQTGDFRTPAELALNKFEKESGHIRNQRSDYSHTFSRKDLQAELILLFEKQKEFGNPHVSGGLKEGIETLLMTQRPALSGDAVQKMLGHCTFEPAEPKAAKNTYTAERFIWLTKLNNLRILEQGSERPLTDTERATLMDEPYRKSKLTYAQARKLLGLEDTAFFKGLRYGKDNAEASTLMEMKAYHAISRALEKEGLKDKKSPLNLSPELQDEIGTAFSLFKTDEDITGRLKDRIQPEILEALLKHISFDKFVQISLKALRRIVPLMEQGKRYDEACAEIYGDHYGKKNTEEKIYLPPIPADEIRNPVVLRALSQARKVINGVVRRYGSPARIHIETAREVGKSFKDRKEIEKRQEENRKDREKAAAKFREYFPNFVGEPKSKDILKLRLYEQQHGKCLYSGKEINLGRLNEKGYVEIDHALPFSRTWDDSFNNKVLVLGSENQNKGNQTPYEYFNGKDNSREWQEFKARVETSRFPRSKKQRILLQKFDEDGFKERNLNDTRYVNRFLCQFVADRMRLTGKGKKRVFASNGQITNLLRGFWGLRKVRAENDRHHALDAVVVACSTVAMQQKITRFVRYKEMNAFDGKTIDKETGEVLHQKTHFPQPWEFFAQEVMIRVFGKPDGKPEFEEADTLEKLRTLLAEKLSSRPEAVHEYVTPLFVSRAPNRKMSGQGHMETVKSAKRLDEGVSVLRVPLTQLKLKDLEKMVNREREPKLYEALKARLEAHKDDPAKAFAEPFYKYDKAGNRTQQVKAVRVEQVQKTGVWVRNHNGIADNATMVRVDVFEKGDKYYLVPIYSWQVAKGILPDRAVVQGKDEEDWQLIDDSFNFKFSLHPNDLVEVITKKARMFGYFASCHRGTGNINIRIHDLDHKIGKNGILEGIGVKTALSFQKYQIDELGKEIRPCRLKKRPPVR,all 5 families inhibited Nme1Cas9,all 5 families inhibited Nme1Cas9,all 5 families inhibited Nme1Cas9,all 5 families inhibited Nme1Cas9,AcrE2 failed to do so,all 5 families inhibited Nme1Cas9
"Nme2Cas9 (recombinant, purified; Neisseria meningitidis strain De11444) (protein) PKKKRKVNAMAAFKPNPINYILGLDIGIASVGWAMVEIDEEENPIRLIDLGVRVFERAEVPKTGDSLAMARRLARSVRRLTRRRAHRLLRARRLLKREGVLQAADFDENGLIKSLPNTPWQLRAAALDRKLTPLEWSAVLLHLIKHRGYLSQRKNEGETADKELGALLKGVANNAHALQTGDFRTPAELALNKFEKESGHIRNQRGDYSHTFSRKDLQAELILLFEKQKEFGNPHVSGGLKEGIETLLMTQRPALSGDAVQKMLGHCTFEPAEPKAAKNTYTAERFIWLTKLNNLRILEQGSERPLTDTERATLMDEPYRKSKLTYAQARKLLGLEDTAFFKGLRYGKDNAEASTLMEMKAYHAISRALEKEGLKDKKSPLNLSSELQDEIGTAFSLFKTDEDITGRLKDRVQPEILEALLKHISFDKFVQISLKALRRIVPLMEQGKRYDEACAEIYGDHYGKKNTEEKIYLPPIPADEIRNPVVLRALSQARKVINGVVRRYGSPARIHIETAREVGKSFKDRKEIEKRQEENRKDREKAAAKFREYFPNFVGEPKSKDILKLRLYEQQHGKCLYSGKEINLVRLNEKGYVEIDHALPFSRTWDDSFNNKVLVLGSENQNKGNQTPYEYFNGKDNSREWQEFKARVETSRFPRSKKQRILLQKFDEDGFKECNLNDTRYVNRFLCQFVADHILLTGKGKRRVFASNGQITNLLRGFWGLRKVRAENDRHHALDAVVVACSTVAMQQKITRFVRYKEMNAFDGKTIDKETGKVLHQKTHFPQPWEFFAQEVMIRVFGKPDGKPEFEEADTPEKLRTLLAEKLSSRPEAVHEYVTPLFVSRAPNRKMSGAHKDTLRSAKRFVKHNEKISVKRVWLTEIKLADLENMVNYKNGREIELYEALKARLEAYGGNAKQAFDPKDNPFYKKGGQLVKAVRVEKTQESGVLLNKKNAYTIADNGDMVRVDVFCKVDKKGKNQYFIVPIYAWQVAENILPDIDCKGYRIDDSYTFCFSLHKYDLIAFQKDEKSKVEFAYYINCDSSNGRFYLAWHDKGSKEQQFRISTQNLVLIQKYQVNELGKEIRPCRLKKRPPVRGGGGSGGGGSGGGGSPAAKKKKLDGGGSKRPAATKKAGQAKKKK",completely inhibited Nme2Cas9,did not inhibit Nme2Cas9 in vitro even at a 10-fold molar excess,completely inhibited Nme2Cas9,completely inhibited Nme2Cas9,,completely inhibited Nme2Cas9

# Reference: patent US20240408238
